Experimental data: patent publication US20240301071A1 (Alector, published 2024)

Assays:
[1] = biological target: T1, human SIRPA v1 on BWZ cells (BWZ-huSIRPA) (human, UniProt P78324 31-504); assay: flow cytometry competition on BWZ-huSIRPA v1 cells, competitor: fluorophore-labelled reference m3F9
T1 construct: also called BWZ cells overexpressing human SIRPA; BWZ-huSIRPA v1 cells
Source text: IC50 values provide another comparison of relative affinity.

[2] = biological target: T2, histidine-tagged human SIRPA (Sino Biological) (human, UniProt P78324 31-370); assay: BLI (Octet RED96), antibody captured on anti-human IgG Fc sensor, His-tagged SIRPA in solution, 1:1 model
T2 construct: bought, soluble; also called histidine-tagged huSIRPA isoform 1; soluble SIRPA antigen; not shown: histidine tag
T2 sequence (P78324 31-370 limits assumed): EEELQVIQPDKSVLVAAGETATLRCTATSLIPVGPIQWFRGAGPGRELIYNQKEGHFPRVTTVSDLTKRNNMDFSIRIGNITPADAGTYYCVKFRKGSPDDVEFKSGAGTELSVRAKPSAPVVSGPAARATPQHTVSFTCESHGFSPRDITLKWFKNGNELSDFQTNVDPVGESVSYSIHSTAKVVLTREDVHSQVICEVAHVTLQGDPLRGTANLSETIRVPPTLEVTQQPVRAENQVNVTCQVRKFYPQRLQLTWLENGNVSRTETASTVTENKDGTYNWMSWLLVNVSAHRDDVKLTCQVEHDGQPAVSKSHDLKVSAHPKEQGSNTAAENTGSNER
Method: Affinity measurements for the anti-SIRPA antibodies were performed as follows. Bio-layer interferometry (BLI) data were collected on a Pall ForteBio Octet RED96 instrument. Data analysis was performed using ForteBio Data Analysis Software, version 9.0. Standard kinetic buffer (PBS, 0.100 BSA, 0.02% Tween-20, pH 7.2) was used for the assay and for preparing reagents. […] Varying concentrations (0-200 nM) of histidine-tagged human SIRPA (Sino Biological, Beijing, China) were then bound to the captured anti-SIRPA surface (300 s association time, 600 s dissociation time). The resulting BLI signal was obtained as the difference in response from the reference (2.5 μg/mL IgG+0 nM SIRPA) sensor. […] Multi-concentration kinetic analysis was performed using a 1:1 interaction model to extract association and dissociation rate constants (ka and kd, respectively) for each antibody. Binding affinity constants (KD) were calculated from the ratio kd/ka.
Best-fit traces from the resulting sensorgrams were analyzed to calculate association rate, dissociation rate, and affinity values.

[3] = biological target: T3, human SIRPA on human macrophages (primary monocyte-derived macrophages; U937 line) (human, UniProt P78324 31-504); assay: cell-based or functional assay
T3 sequence (P78324 31-370): as the sequence (P78324 31-370 limits assumed) above

[4] = biological target: T1, human SIRPA v1 on BWZ cells …; assay: flow cytometry titration on BWZ cells overexpressing huSIRPA, 4 C
Method: Receptor bound antibodies were detected by staining cells with anti-mouse IgG Fc APC or anti-human IgG PE secondary antibody. Serial dilutions of the monoclonal antibodies were added to 10⁵ BWZ cells overexpressing huSIRPA (BWZ-huSIRPA) and allowed to achieve binding equilibrium at 4° C. After addition of fluorescently labeled secondary antibody and brief washing steps, mean fluorescent intensity (MFI) values as a function of titrated antibody concentration was recorded via FACS analysis. Curves were fit using nonlinear regression analysis with Graphpad Prism 6 software.

[5] = biological target: human SIRPA W287A (V5-tagged library clone on HEK-293T cells) (human, UniProt P78324 31-504); assay: flow cytometry of Fab on HEK-293T cells expressing the mutant, normalised to wild-type SIRPA
Sequence of human SIRPA W287A (V5-tagged library clone on HEK-293T cells) (P78324 31-504 W287A): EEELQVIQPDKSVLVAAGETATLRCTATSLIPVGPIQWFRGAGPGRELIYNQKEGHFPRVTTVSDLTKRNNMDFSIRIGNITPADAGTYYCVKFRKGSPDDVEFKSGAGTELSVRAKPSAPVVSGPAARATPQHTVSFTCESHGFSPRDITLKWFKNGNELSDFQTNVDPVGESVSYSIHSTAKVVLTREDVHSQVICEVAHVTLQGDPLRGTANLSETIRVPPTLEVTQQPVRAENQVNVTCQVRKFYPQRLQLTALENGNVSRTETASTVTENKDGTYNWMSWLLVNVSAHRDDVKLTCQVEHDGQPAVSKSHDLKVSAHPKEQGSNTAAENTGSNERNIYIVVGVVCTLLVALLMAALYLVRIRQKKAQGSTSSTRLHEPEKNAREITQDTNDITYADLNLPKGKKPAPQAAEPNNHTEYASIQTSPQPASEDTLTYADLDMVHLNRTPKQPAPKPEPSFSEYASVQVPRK
Method: (§1) Epitope mapping of anti-SIRPA antibodies was performed using an alanine-scanning library created by shotgun mutagenesis of the human SIRPA cDNA sequence. […] Each of the residues representing the SIRPA extracellular domain (amino acids 31-374 of SEQ ID NO:1) was mutated, most to alanine, while alanine codons were mutated to serine.
(§2) The SIRPA mutant library clones, arrayed in a 384-well microplate, were transfected individually into HEK-293T cells and allowed to express for 22 hours. Antibodies were digested to generate Fabs, after which cells were incubated with Fabs diluted in 10% normal goat serum (NGS) (Sigma-Aldrich, St. Louis, MO). Prior to library screening, primary Fab concentrations were determined using an independent immunofluorescence titration curve against cells expressing wild type SIRPA to ensure that signals were within the linear range of detection. Fabs were detected using 7.5 μg/ml AlexaFluor488-conjugated secondary antibody (Jackson ImmunoResearch Laboratories, Westgrove, PA) in 10% NGS. Cells were washed twice with PBS and resuspended in Cellstripper (Cellgro, Manassas, VA) with 0.1% BSA (Sigma-Aldrich, St. Louis, MO). In some cases, higher stringency conditions were used, including increased pH, increased temperature, and increased dissociation time. Mean cellular fluorescence was detected using the Intellicyt high throughput flow cytometer (HTFC, Intellicyt, Albuquerque, NM). Fab reactivities against each mutant clone were calculated relative to wild-type SIRPA protein reactivity by subtracting the signal from mock-transfected controls, and normalizing to the signal from wild-type SIRPA transfected controls.

[6] = biological target: human SIRPA E297A (V5-tagged library clone on HEK-293T cells) (human, UniProt P78324 31-504); assay: as above
Sequence of human SIRPA E297A (V5-tagged library clone on HEK-293T cells) (P78324 31-504 E297A): as the sequence (P78324 31-504 W287A) above, with A257W, E267A counted along it
Method: as §1, §2

[7] = biological target: human SIRPA G337A (V5-tagged library clone on HEK-293T cells) (human, UniProt P78324 31-504); assay: as above
Sequence of human SIRPA G337A (V5-tagged library clone on HEK-293T cells) (P78324 31-504 G337A): as the sequence (P78324 31-504 W287A) above, with A257W, G307A counted along it
Method: as §1, §2

[8] = biological target: human SIRPA L285A (V5-tagged library clone on HEK-293T cells) (human, UniProt P78324 31-504); assay: as above
Sequence of human SIRPA L285A (V5-tagged library clone on HEK-293T cells) (P78324 31-504 L285A): as the sequence (P78324 31-504 W287A) above, with L255A, A257W counted along it
Method: as §1, §2

[9] = biological target: human SIRPA V302A (V5-tagged library clone on HEK-293T cells) (human, UniProt P78324 31-504); assay: as above
Sequence of human SIRPA V302A (V5-tagged library clone on HEK-293T cells) (P78324 31-504 V302A): as the sequence (P78324 31-504 W287A) above, with A257W, V272A counted along it
Method: as §1, §2

[10] = biological target: human SIRPA Q281A (V5-tagged library clone on HEK-293T cells) (human, UniProt P78324 31-504); assay: as above
Sequence of human SIRPA Q281A (V5-tagged library clone on HEK-293T cells) (P78324 31-504 Q281A): as the sequence (P78324 31-504 W287A) above, with Q251A, A257W counted along it
Method: as §1, §2

[11] = biological target: human SIRPA Q284A (V5-tagged library clone on HEK-293T cells) (human, UniProt P78324 31-504); assay: as above
Sequence of human SIRPA Q284A (V5-tagged library clone on HEK-293T cells) (P78324 31-504 Q284A): as the sequence (P78324 31-504 W287A) above, with Q254A, A257W counted along it
Method: as §1, §2

[12] = biological target: human SIRPA R282A (V5-tagged library clone on HEK-293T cells) (human, UniProt P78324 31-504); assay: as above
Sequence of human SIRPA R282A (V5-tagged library clone on HEK-293T cells) (P78324 31-504 R282A): as the sequence (P78324 31-504 W287A) above, with R252A, A257W counted along it
Method: as §1, §2

[13] = biological target: human SIRPA R295A (V5-tagged library clone on HEK-293T cells) (human, UniProt P78324 31-504); assay: as above
Sequence of human SIRPA R295A (V5-tagged library clone on HEK-293T cells) (P78324 31-504 R295A): as the sequence (P78324 31-504 W287A) above, with A257W, R265A counted along it
Method: as §1, §2

[14] = biological target: human SIRPA W315A (V5-tagged library clone on HEK-293T cells) (human, UniProt P78324 31-504); assay: as above
Sequence of human SIRPA W315A (V5-tagged library clone on HEK-293T cells) (P78324 31-504 W315A): as the sequence (P78324 31-504 W287A) above, with A257W, W285A counted along it
Method: as §1, §2

[15] = biological target: T3, human SIRPA on human macrophages …; assay: cell-based or functional assay; remark: listed apart in the source

T1 sequence (P78324 31-504): as the sequence (P78324 31-504 W287A) above, with A257W counted along it

Binder	IC50 [1] [nM]	Kd [2] [nM]	koff [2] [s⁻¹]	kon [2] [M⁻¹ s⁻¹]	IC50 (read off the curve), SIRPA downregulation on primary human macrophages, Dnr 409 [3] [nM]	EC50 [4] [nM]	Binding Reactivity (% WT) [5] [% WT]	Binding Reactivity (% WT) [6] [% WT]	Binding Reactivity (% WT) [7] [% WT]	Binding Reactivity (% WT) [8] [% WT]	Binding Reactivity (% WT) [9] [% WT]	Binding Reactivity (% WT) [10] [% WT]	Binding Reactivity (% WT) [11] [% WT]	Binding Reactivity (% WT) [12] [% WT]	Binding Reactivity (% WT) [13] [% WT]	Binding Reactivity (% WT) [14] [% WT]	IC50 (read off the curve), SIRPA downregulation on primary human macrophages, Dnr. 517 [15] [nM]
mAb 14.70.1 (antibody, human IgG4, V domains shown, also called h3F9 H1/L1; h3F9 IgG4) VH: EVQLLESGGGLVQPGGSLRLSCAASGFTFSSYAMSWVRQAPGKGLEWVSTISDYGGSYTYYADSVKGRFTISRDNSKNTLYLQMNSLRAEDTAVYYCAKPPYDDYYGGFAYWGQGTLVTVSS VL: DIQMTQSPSSLSASVGDRVTITCRASKSVSSSGYSYMHWYQQKPGKAPKLLIYLASNLESGVPSRFSGSGSGTDFTLTISSLQPEDFATYYCQHNRELPCTFGQGTKLEIK	3.3	19	0.002	110000	~0.2	1.06	–	–	–	–	–	–	–	–	–	–	–
3F9-22 SELF (antibody, human IgG1, kappa) heavy chain: not shown light chain: DIQLTQSPSSLSASVGDRVTITCRASKSVSSGGYSYMHWYQQKPGKAPKLLIYLASNLESGVPSRFSGSGSGTDFTLTISSVQPEDFATYYCQHNRELPVTFGQGTKLEIKRTVAAPSVFIFPPSDEQLKSGTASVVCLLNNFYPREAKVQWKVDNALQSGNSQESVTEQDSKDSTYSLSSTLTLSKADYEKHKVYACEVTHQGLSSPVTKSFNRGEC	–	–	–	–	–	–	–	–	–	–	–	–	–	–	–	–	~0.1

The remaining lines, values ahead:

IC50 [1] [nM]	Kd [2] [nM]	koff [2] [s⁻¹]	kon [2] [M⁻¹ s⁻¹]	IC50 (read off the curve), SIRPA downregulation on primary human macrophages, Dnr 409 [3] [nM]	EC50 [4] [nM]	Binding Reactivity (% WT) [5] [% WT]	Binding Reactivity (% WT) [6] [% WT]	Binding Reactivity (% WT) [7] [% WT]	Binding Reactivity (% WT) [8] [% WT]	Binding Reactivity (% WT) [9] [% WT]	Binding Reactivity (% WT) [10] [% WT]	Binding Reactivity (% WT) [11] [% WT]	Binding Reactivity (% WT) [12] [% WT]	Binding Reactivity (% WT) [13] [% WT]	Binding Reactivity (% WT) [14] [% WT]	IC50 (read off the curve), SIRPA downregulation on primary human macrophages, Dnr. 517 [15] [nM]	Binder
–	–	–	–	–	–	125	117	17.9	107	92.3	151	3.3	3.8	121	117	–	3F9 Fab (Fab, V domains shown) VH: EVKLVESGGGLVKPGGSLKLSCAASGFTFSSYAMSWVRQTPEKRLEWVATISDYGGSYTYYPDSVKGRFTISRDNAKYTLYLQMSSLRSEDTALYYCARPPYDDYYGGFAYWGQGTLVTVSA VL: DIVLTQSPASLAVSLGQRATISCRASKSVSSSGYSYMHWYQQKPGQPPKLLIYLASNLESGVPARFSGSGSGTDFTLNIHPVEEEDAATYYCQHNRELPCTFGGGTKLEIK
–	–	–	–	–	–	2.4	5.3	36.3	17.9	4.9	14.1	6.5	4.7	1.8	19	–	9C2 Fab (Fab, V domains shown) VH: EFQLQQSGAELVKPGASVKISCKASGYSLTGYNMNWVKQSRGKSLEWIGNINPHYGSSTYNQNFKDKATLTVDKSSSAAYMQFNSLTSEDSAVYYCAREGYDGVFDYWGQGTTLTVSS VL: QIVLSQSPAILSASPGEKVTMTCRASSSVSYMHWYQQKPGSSPKPWIYVTSNLASGVPTRFSGSGSGTSYSLTISRVEAEDAATYYCQQWSSNPRTFGGGTKLEIK
